This note sets out measurements from the nanobody polyreactivity screen of Harvey et al. (2022).

The nature of the data set: yeast display, Sf9 membrane polyspecificity reagent, FACS + sequencing; frameworks hold sequencing errors. Summed up: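 Using colony PCR, genes from sorted yeast display clones were amplified, then sequenced on MiSeq at 2 × 250 and filtered by CDR length. The clones had been stained with 10% biotinylated, detergent-solubilized Sf9 membrane reagent for 1 hour at 4 °C and sorted by FACS into low and high (top ~1%) gates on anti-HA and streptavidin fluorescence. Polyreactivity labels come from the gate of origin.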
In the case of “QVQLVESGGGLVQAGGSLRLSCAASGSISGYYAMGWYRQAPGKERELVASIRYTGARTYYADSVKGRFTISRDNAKNTVYLQMNSLKPEDTAVYYCNARVDWGWPGYEYDYWGQGTQVTVSS”, the “polyreactivity (PSR sort gate)” value was “low polyreactivity”.
Next, “QVQLVESGGGLVQAGGSLRLSCAASGSTFWYNAMGWYRQAPGKERELVARISYSGGSTYYADSVKGRFTISRDNAKNTVYLQMNSLKPEDTAVYYCAARRPYKYDYWGQGTQVTVSS”: “high polyreactivity”; “QVQLVESGGGLVQAGGSLRLSCAASGSTSYDNSMGWNRKAPGKERELVAAITSDGGSTYYADSVKGRFTISRDKAKNTLYLQMNSLKPEDTAVYYCSADVVHQEWVYVYGGRDDYWGQGTQVTVSS”: “low polyreactivity”; “QVQLVESGGGLVQAGGSLRLSCAASGFTFRRYAMGWYRQAPGKERELVAVITTGGSTYYADSVKGRFTISRDNAKYTVYLQMNSLKPEDTAVYYCAARYYWYSQEYVMSSWWGDYWGLGTQVTVSS”: “high polyreactivity”.
Next, “QVQLVESGGGLVKAGGSLRLSCAASGSTFDWYAMGWYRQAPGKERELVAAITWRGDSTNYADSVKGRFTISRDNAKNTVYLQMNSLKPEDTAVYYCATGKTYRDDYWGQGTQVTVSS”: “high polyreactivity”; “QVQLVESGGGLVQAGGSLRLSCAASGRTFTGYAMGWYRQAPGKERELVAAMSASGGSTYYADSVKGRFTISRDNAKNTVYLQMNSLKPEDTAVYYCAAETWYSVLWEEGYDYWGQGTQVTVSS”: “low polyreactivity”.
The value for “QVQLVESGGGLVQAGGSLRLSCAASGSIFGGNAMGWYRQAPGKERELVATIDFSGTSTYYADSVKGRFTISRDNAKITVYLQMNSLKPEDTAVYYCAVRSGYVNRRYDYWGQGTQVTVSS” was “low polyreactivity”; that for “QVQLVESGGGLVQAGGSLRLSCAASGLIFFHNGMGWYRQAPGKEREFVAVISSSGGSTYYADSVKGRFTISRDNAKNTVYLQMNSLKPEDTAVYYCAARDYSRRYGYWGQGTQVTVSS” was “high polyreactivity”; that for “QVQLVESGGGLVQAGGSLRISCAASGSIFYNYAMGWYRQAPGKERELVAAINRSGGITFYADSVKGRFTISRDNAKNTVYLQMNSLKPEDTAVYYCAADRSFGHHYWYTGKRYDYWGQGTQVTVSS” was “low polyreactivity”.
As to “QVQLVESGGGLVQAGGSLRLSCAASGSIFYGYAMGWYRQAPGKERELVAAISRRGGSTYYADSVKGRFTISRDIAKNTVDLQMNSLKPEDTAVYYCAAVGLWYEYYYWGQGTQVTVSS”, the “polyreactivity (PSR sort gate)” value was “high polyreactivity”.
Turning to “QVQLVESGGGLVQAGGSLRLICAASGSTFYSYAMGWYRQAPGKERELVAVISWSGGSTYYADSVKGRFTISRDNAKNTVYLQMNSLKPEDTAVYYCAAESYYSDDWYYAYYYWGQGTQVTVSS”, the “polyreactivity (PSR sort gate)” value is listed as “high polyreactivity”.
The value for “QVQLVESGGGLVQAGGSLRLSCAASGSTFAKNAMGWYRQAPGKERELVAAISRGGNTYYADSVKGRFTISRDNAKNTVYLHMNSLKPEDTAVYYCAKLPYTRTYLGSLYDYWGQGTQVTVSS” was “high polyreactivity”; that for “QVQLVESGGGLVQAGGSLRLICAPSGRITLRYAIGWYRQAPRKERDFVAAITVSGGSTYYADSVKGRFTISRDNAKNTVYLMMNRLKPEDTAVYYCAVRQKTQYGSKHDYWGQGTQVTVSS” was “high polyreactivity”.
“QVQLVESGGGLVQAGGSLRLSCAASGSIFGRYAMGWYRQAPGKERELVADISWSGGRTYYADSVKGRFTISRDNAKNTVYLQMNSLKPEDTAVYYCNKVYRWFTRFDYWGQGTQLTVSS”: the “polyreactivity (PSR sort gate)” value is recorded as “high polyreactivity”.
The value for “QVQLVESGGGLVQAGGSLRLSCAASGSTFYPYAMGWYRQAPGKERELVAAISSGGSTNYADSVKGRFTISRDNAKNTVYLQMNSLKPEDTAVYYCAAEDWSLYDYGDRLWYSPYYYWGQGTQVTVSS” was “high polyreactivity”.
Next, “QVHIVESGGGLVQAGGSLRLSCADSGSIFLSNVMGSYRQAPGKERELVDDITRSGGSTYYADSVKGRFTISRDNAKNTVYLQMNSLKPEDTAVYYCNAYEYLSAGYDYWGQGTQVTVSS”: “low polyreactivity”; “QVQLVESGGGLVQAGGSLRLSCAASGRTFPAYAMGWYRQAPGKERELVAAISYSGGRTRYADSVKGRFTISRDNAMNSVYLQMNSLKPEDTAVYFCNRVIPTQSLRDYYWGQGTQVTVSS”: “high polyreactivity”.
The value for “QVQLVESGGGLVQAGGSLRLSCAASGSTFHYYAMGWYRQAPGKERELVAAISKRGGSTYYADSVKGRFTISRDNAKNNVYLQMNSLKPEDTSVYYCAKTWVSYSRYHYEYWGQGTQVTVSS” was “high polyreactivity”.
Regarding “QVQLVESRGGLVQAGGRLRLSCAASGLIFYKYAMGWYRPAHGKERQLVAAITSGGGSTYYADSVKGRFTISRDNAKNTVYLQKNSLKPEDSAVYYCAATRPATYAAYDYWGHGTQVTVSS”, the “polyreactivity (PSR sort gate)” value is on record as “high polyreactivity”.
Regarding “QVQLVESGGGLVQAGGSLRLSCAASGFISPPYAMGWYRQAPGKERELVAAIRSSGGSTYYADSVKGRFTISRDNAKNTVYLQMNSLIPEDTAVYYCNADWIYISSYGWYSYDYWGQGTQVTVSS”, the “polyreactivity (PSR sort gate)” value is on record as “high polyreactivity”.
The value for “QVQLVESGGGLVQAGGSLRLSCAASGRIFLGYAMGRYRQAPGKERELVAAITFSGGSTYYADSVKGRFTISRDNAKNTVYLQMNSLKPEDTAVYYCAAPRLRRTYPRNRYDYWGQGTQVTVSS” was “low polyreactivity”; that for “QVQLVESGGGLVQAGGSLRLSCAASGIIFDYNAMGWYRQAPGKERELVAAITSTDNTNYADSVKGRFTISRDNAKNTVYLQMNSLKPEDTAVYYCNTDYWLSVVYAMDYWGQGTQVTVSS” was “low polyreactivity”.
Next, “QVQLVESGGGLVQAGGSLRLSCADSGSIFGINTMGWYRQAPGKERELVAAITFGGGSTYYADSVKGRFTISRDNAKNTVYLQMNSLKPEDTAVYYCNRLGVYWVGTEFDYWGQGTQVTVSS”: “low polyreactivity”; “QVQLVESGGGLVQAGGSLRISCAASGRIFYNNDMAWYRQAPGKERELVAAITVRGSITYYADSVKGRFTISRDNAKTTVYLHMNSLKPEDTAVYYCATEWVNRLYSWGQGTQVTVSS”: “low polyreactivity”; “QVQLVESGGVLVQAGGSLRLSCAASGRTYGTYAMGWYRQAPGKERELVAGINGSGGSTYYADSVKGRFTISRDNAKNTVFLQMNSLKPEDTAVYYCYKYGRRPYGLRGYWGEGTQVTVSS”: “high polyreactivity”.
Turning to “QVQLVESGGGLVQAGGSLRLSCAASGFTYPANAMGWYRQAPGKERELVASISGSGGRTYYADSVKGRFTISRDNAQNTVYLQMNSLKPEDTAVYYCNRYSYWYRGEYGYWGQGTQVTVSS”, the “polyreactivity (PSR sort gate)” value is “high polyreactivity”.
The value for “QVQLVESGGGLVQAGGSLRLSCAASGGTFQINAMGWYIQAPGKERELVAAISRSGGSTSYADSVKGRFTISRDNAKNTVYLQMNSLKPQDTAVYYCNKRVRATAWYDYWGQGTQVTVSS” was “high polyreactivity”; that for “QVQLVESGGGLVQAGGSLRLSCAASGRILYRYAMGWYRQAPGKERELVAAITWRGGTTYYADSVKGRFTISRDNAKNTVYLQMNSLKPEYTAVYYCNADWWRTLESDFWGQGTQVTVSS” was “low polyreactivity”.
The value for “QVQLVESGGGLVQAGGSLRLSCAASGSIIYWYAMGWYRQAPGKERELVADISRGGITYYADSVKGRFTISRDNAKNTVYLQMNSLKPEDTAVYYCSKTHYGVQRLDSWGQGTQVTVSS” was “low polyreactivity”; that for “QVQLVESGGGLVQAGGSLRLSCAASGSTFAFNAMGWYRQAPGKERELVAAISTSGGDTYYADSVKGRFTISRDNAKNTVYLQMNSLKPEDTAVYYCGGDYQVPGGSWMDYWGQGTQVTVSS” was “high polyreactivity”.
The value for “QVQLVESAGGLVQAGGSLRLSCAPSGRTFYGNAMGWYRQAPGTERELVAAISSRGGSTYYADSVKGRFTISRDNANNTVYLQMNSLKPEDTAVYYCNVANGLSQVYRYNYWGQGTQVTVSS” was “high polyreactivity”.
As for “QVQLVESGGGLVQAGGSLRLSCAASGFTFKLYAMGWYRQAPGKERELVAAISSSGGRTYYADSVKGRFTISRDNAKYNVYLQMNSLKPEDTAVYYCNAVRTVNDYHYDYWGQGTQVTVSS”, the “polyreactivity (PSR sort gate)” value is recorded as “high polyreactivity”.
In the case of “QVQLLESGGGLVQAGGSLRISCAASGSTFVRYPMGWYRQAPGKERELVAGISSGDRTYYADSVKGRFTISRDNAKNTVYLQMNSLKPEYTSVYYCNARPVYLLEGYYWGQGTQVTVSS”, the “polyreactivity (PSR sort gate)” value is on record as “low polyreactivity”.
For “QVQLVESGGGLVQAGGSLRLSCAASGRIFHVNAMGWYRQAPGKERELVAAISTSGGRTYYADSVKGRFTISRDNAKNTVYLQMNSLKPEDTAVYYCAASLGGYGERYYYWGQGTQVTVSS”, the “polyreactivity (PSR sort gate)” value is “high polyreactivity”.
The value for “QVQLVESGGGLVQAGGSLRLSCAASGSIFGWYVMGWYRQAPGKERELVAAISSVGSTYYADSVKGRFTISRDNAKNTVYLQMNSLKPEDTAVYYCAKLRYPYLFWDDSEYWGQCTQVTVSS” was “low polyreactivity”; that for “QVQLVESGGGLVQAGGSLRLSCAASGRIFGEYAMGWYRQAPGKERELVAAISGGGSTYYADSVKGRFTISRDNAKNTVYLQMNSLKPEDTAVFYCAVYSVYHEYDYWGQGTQVTVSS” was “low polyreactivity”.
The value for “QVQLVESGGGLVQAGGSLRLSCAASGFTFSRYAMGWYRQAPGKERELVAAISYSGGRTYYADSVKGRFTISRDNAKNTVYLQMKSLKPEDTAVYYCNAFFTSSGWRLGYDYWGQGTQVTVSS” was “high polyreactivity”; that for “QVQLVESGGGLFQEGGSLRLSCAASGRTFKYYAMGWYRQAPGKERELVASISQSGTSTYYADSVKGRFTISRDNAKSTVYLQLNSLKPEDTAVYFCGARTRYRYYSYGYWGQATQVTVSS” was “high polyreactivity”; that for “QVQLVESGGGLVQAGGSLRLSCAASGRIFVNYAMGWYRQAPGKERELVAVISRSGGGTNYADSVKGRFTISRDNAKNTVYLQMNSLKPEDTAVYYCNRVYALTYYAKYGYDYWGQGTQVTVSS” was “high polyreactivity”.
The value for “QVQLVESGGGLVQAGGSLRLSCAASGRIFYDNAMGWYSQAPGKERELVAAIRIGGSTNYADSVKGRFTISRDNAKNTVYLLMNSLKPEDTAVYYCNRSDNPDSYYPDSVWGDSWGQGTQVTVSS” was “low polyreactivity”.
